US20230357348A1 (AstraZeneca / MedImmune, published 2023)
Starred links: 1 amine or outer side, 2 acyl side, 3 side chain; linkers in the order of their positions; H or OH if unused. Non-standard residues stand in square brackets, D forms with d. Groups on a side chain read outwards from the residue. No end group written: not given here. *: point of attachment. C20 diacid = O=C(O)CCCCCCCCCCCCCCCCCCC(=O)*; C18 diacid = O=C(O)CCCCCCCCCCCCCCCCC(=O)*; γGlu = O=C(O)[C@H](CCC(=O)[*:2])N[*:1]; αMeF = C[C@](N)(Cc1ccccc1)C(=O)O; AEEA = NCCOCCOCC(=O)O; Aib = CC(C)(N)C(=O)O

What was measured:
Assay in all cases: cell-based or functional assay
[1] = target: human GLP-1 receptor (hGLP-1R) (human, UniProt P43220 24-463)
[2] = target: human glucagon receptor (hGCGR) (human, UniProt P47871 26-477)
[3] = target: human glucagon receptor (human, UniProt P47871 26-477)
[4] = target: human GLP-1 receptor (human, UniProt P43220 24-463)

Sequence of human glucagon receptor (P47871 26-477): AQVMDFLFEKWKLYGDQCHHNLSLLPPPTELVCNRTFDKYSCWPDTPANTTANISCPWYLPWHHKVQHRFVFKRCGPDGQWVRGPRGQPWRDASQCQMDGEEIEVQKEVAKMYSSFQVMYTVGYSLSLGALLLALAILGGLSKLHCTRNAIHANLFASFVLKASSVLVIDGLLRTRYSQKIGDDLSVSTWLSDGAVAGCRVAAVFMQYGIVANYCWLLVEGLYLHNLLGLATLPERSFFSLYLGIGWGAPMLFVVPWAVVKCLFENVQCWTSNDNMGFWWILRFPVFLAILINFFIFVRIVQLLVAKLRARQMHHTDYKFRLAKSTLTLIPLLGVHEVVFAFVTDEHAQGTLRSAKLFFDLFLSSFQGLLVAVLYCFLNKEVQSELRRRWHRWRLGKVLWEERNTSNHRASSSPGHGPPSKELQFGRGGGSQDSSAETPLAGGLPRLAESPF
Sequence of human glucagon receptor (hGCGR) (P47871 26-477): as above

hGLP-1R EC50 (pM); cAMP production [1] [pM]	hGluc-R EC50 (pM); cAMP production [2] [pM]	hGluc-R EC50 (pM), cAMP [3] [pM]	hGLP-1R EC50 (pM), cAMP [4] [pM]	Binder
121	83.7	–	–	HXQGSXTSDVSKXLDSQAAQDFVXWIANT (Aib at 2; αMePhe at 6 and 13; K(O2Oc-O2Oc-γE-C18diacid)24; C-terminal amide) [Peptide 349]
4970	597	–	–	HXHGTFTSDVSKXLDSQAAQDFVXWIANT (Aib at 2; αMePhe at 13; K(γE-C20diacid)24; C-terminal amide) [Peptide 347]
–	–	> 24400	366	H[Aib]QGTFTSDVSE[αMeF]LDSERAK([AEEA-AEEA-γGlu-C18 diacid])DFVRWLEAGG-OH (not fully specified) [Peptide 524]
–	–	> 24700	615	H[Aib]QGTFTSDVSK[αMeF]LDSERAK([AEEA-AEEA-γGlu-C20 diacid])DFVAWLEAGG-OH (N-terminus assumed; SMILES CC(C)C[C@H](NC(=O)[C@H](Cc1c[nH]c2ccccc12)NC(=O)[C@H](C)NC(=O)[C@@H](NC(=O)[C@H](Cc1ccccc1)NC(=O)[C@H](CC(=O)O)NC(=O)[C@H](CCCCNC(=O)COCCOCCNC(=O)COCCOCCNC(=O)CC[C@H](NC(=O)CCCCCCCCCCCCCCCCCCC(=O)O)C(=O)O)NC(=O)[C@H](C)NC(=O)[C@H](CCCNC(=N)N)NC(=O)[C@H](CCC(=O)O)NC(=O)[C@H](CO)NC(=O)[C@H](CC(=O)O)NC(=O)[C@H](CC(C)C)NC(=O)[C@](C)(Cc1ccccc1)NC(=O)[C@H](CCCCN)NC(=O)[C@H](CO)NC(=O)[C@@H](NC(=O)[C@H](CC(=O)O)NC(=O)[C@H](CO)NC(=O)[C@@H](NC(=O)[C@H](Cc1ccccc1)NC(=O)[C@@H](NC(=O)CNC(=O)[C@H](CCC(N)=O)NC(=O)C(C)(C)NC(=O)[C@@H](N)Cc1c[nH]cn1)[C@@H](C)O)[C@@H](C)O)C(C)C)C(C)C)C(=O)N[C@@H](CCC(=O)O)C(=O)N[C@@H](C)C(=O)NCC(=O)NCC(=O)O) [Peptide 523]
–	–	690	194	H[Aib]QGTFTSDVSK[αMeF]LDSERAK([AEEA-AEEA-γGlu-C18 diacid])DFVAWLEA[Aib]G-OH (N-terminus assumed; SMILES CC(C)C[C@H](NC(=O)[C@H](Cc1c[nH]c2ccccc12)NC(=O)[C@H](C)NC(=O)[C@@H](NC(=O)[C@H](Cc1ccccc1)NC(=O)[C@H](CC(=O)O)NC(=O)[C@H](CCCCNC(=O)COCCOCCNC(=O)COCCOCCNC(=O)CC[C@H](NC(=O)CCCCCCCCCCCCCCCCC(=O)O)C(=O)O)NC(=O)[C@H](C)NC(=O)[C@H](CCCNC(=N)N)NC(=O)[C@H](CCC(=O)O)NC(=O)[C@H](CO)NC(=O)[C@H](CC(=O)O)NC(=O)[C@H](CC(C)C)NC(=O)[C@](C)(Cc1ccccc1)NC(=O)[C@H](CCCCN)NC(=O)[C@H](CO)NC(=O)[C@@H](NC(=O)[C@H](CC(=O)O)NC(=O)[C@H](CO)NC(=O)[C@@H](NC(=O)[C@H](Cc1ccccc1)NC(=O)[C@@H](NC(=O)CNC(=O)[C@H](CCC(N)=O)NC(=O)C(C)(C)NC(=O)[C@@H](N)Cc1c[nH]cn1)[C@@H](C)O)[C@@H](C)O)C(C)C)C(C)C)C(=O)N[C@@H](CCC(=O)O)C(=O)N[C@@H](C)C(=O)NC(C)(C)C(=O)NCC(=O)O) [Peptide 526]
56	329	–	–	H[Aib]HGS[αMeF]TSDVSK[αMeF]LDSR[Aib]AQDFVK([AEEA-AEEA-γGlu-γGlu-C18 diacid])SIANTGG-NH2 (N-terminus assumed; SMILES CC[C@H](C)[C@H](NC(=O)[C@H](CO)NC(=O)[C@H](CCCCNC(=O)COCCOCCNC(=O)COCCOCCNC(=O)CC[C@H](NC(=O)CC[C@H](NC(=O)CCCCCCCCCCCCCCCCC(=O)O)C(=O)O)C(=O)O)NC(=O)[C@@H](NC(=O)[C@H](Cc1ccccc1)NC(=O)[C@H](CC(=O)O)NC(=O)[C@H](CCC(N)=O)NC(=O)[C@H](C)NC(=O)C(C)(C)NC(=O)[C@H](CCCNC(=N)N)NC(=O)[C@H](CO)NC(=O)[C@H](CC(=O)O)NC(=O)[C@H](CC(C)C)NC(=O)[C@](C)(Cc1ccccc1)NC(=O)[C@H](CCCCN)NC(=O)[C@H](CO)NC(=O)[C@@H](NC(=O)[C@H](CC(=O)O)NC(=O)[C@H](CO)NC(=O)[C@@H](NC(=O)[C@](C)(Cc1ccccc1)NC(=O)[C@H](CO)NC(=O)CNC(=O)[C@H](Cc1c[nH]cn1)NC(=O)C(C)(C)NC(=O)[C@@H](N)Cc1c[nH]cn1)[C@@H](C)O)C(C)C)C(C)C)C(=O)N[C@@H](C)C(=O)N[C@@H](CC(N)=O)C(=O)N[C@H](C(=O)NCC(=O)NCC(N)=O)[C@@H](C)O) [Peptide 382]
–	–	6360	508	H[Aib]QGTFTSDVSK[αMeF]LDSERAK([AEEA-AEEA-γGlu-C18 diacid])DFVAWLEAGG-OH (N-terminus assumed; SMILES CC(C)C[C@H](NC(=O)[C@H](Cc1c[nH]c2ccccc12)NC(=O)[C@H](C)NC(=O)[C@@H](NC(=O)[C@H](Cc1ccccc1)NC(=O)[C@H](CC(=O)O)NC(=O)[C@H](CCCCNC(=O)COCCOCCNC(=O)COCCOCCNC(=O)CC[C@H](NC(=O)CCCCCCCCCCCCCCCCC(=O)O)C(=O)O)NC(=O)[C@H](C)NC(=O)[C@H](CCCNC(=N)N)NC(=O)[C@H](CCC(=O)O)NC(=O)[C@H](CO)NC(=O)[C@H](CC(=O)O)NC(=O)[C@H](CC(C)C)NC(=O)[C@](C)(Cc1ccccc1)NC(=O)[C@H](CCCCN)NC(=O)[C@H](CO)NC(=O)[C@@H](NC(=O)[C@H](CC(=O)O)NC(=O)[C@H](CO)NC(=O)[C@@H](NC(=O)[C@H](Cc1ccccc1)NC(=O)[C@@H](NC(=O)CNC(=O)[C@H](CCC(N)=O)NC(=O)C(C)(C)NC(=O)[C@@H](N)Cc1c[nH]cn1)[C@@H](C)O)[C@@H](C)O)C(C)C)C(C)C)C(=O)N[C@@H](CCC(=O)O)C(=O)N[C@@H](C)C(=O)NCC(=O)NCC(=O)O) [Peptide 522]
797	1240	–	–	H[Aib]HGS[αMeF]TSDVSK[αMeF]LDSQAAQD[αMeF]VK([AEEA-AEEA-γGlu-γGlu-C20 diacid])[Aib]IANT-NH2 [Peptide 384]
70.1	4110	–	–	HXHGTFTSDVSKXLDSQAAQDFVXWIANT (Aib at 2; αMePhe at 6 and 13; K(O2Oc-O2Oc-γE-C18diacid)24; C-terminal amide) [Peptide 348]
–	42.8	–	–	H[Aib]HGS[αMeF]TSDVSK[αMeF]LDSRAAQDFVK([AEEA-AEEA-γGlu-γGlu-C18 diacid])WIANT-NH2 (N-terminus assumed; SMILES CC[C@H](C)[C@H](NC(=O)[C@H](Cc1c[nH]c2ccccc12)NC(=O)[C@H](CCCCNC(=O)COCCOCCNC(=O)COCCOCCNC(=O)CC[C@H](NC(=O)CC[C@H](NC(=O)CCCCCCCCCCCCCCCCC(=O)O)C(=O)O)C(=O)O)NC(=O)[C@@H](NC(=O)[C@H](Cc1ccccc1)NC(=O)[C@H](CC(=O)O)NC(=O)[C@H](CCC(N)=O)NC(=O)[C@H](C)NC(=O)[C@H](C)NC(=O)[C@H](CCCNC(=N)N)NC(=O)[C@H](CO)NC(=O)[C@H](CC(=O)O)NC(=O)[C@H](CC(C)C)NC(=O)[C@](C)(Cc1ccccc1)NC(=O)[C@H](CCCCN)NC(=O)[C@H](CO)NC(=O)[C@@H](NC(=O)[C@H](CC(=O)O)NC(=O)[C@H](CO)NC(=O)[C@@H](NC(=O)[C@](C)(Cc1ccccc1)NC(=O)[C@H](CO)NC(=O)CNC(=O)[C@H](Cc1c[nH]cn1)NC(=O)C(C)(C)NC(=O)[C@@H](N)Cc1c[nH]cn1)[C@@H](C)O)C(C)C)C(C)C)C(=O)N[C@@H](C)C(=O)N[C@@H](CC(N)=O)C(=O)N[C@H](C(N)=O)[C@@H](C)O) [Peptide 362]
–	–	2450	177	H[Aib]QGTFTSDVSK[αMeF]LDSERAK([AEEA-AEEA-γGlu-C18 diacid])DFVQWLEA[Aib]G-OH (N-terminus assumed; SMILES CC(C)C[C@H](NC(=O)[C@H](Cc1c[nH]c2ccccc12)NC(=O)[C@H](CCC(N)=O)NC(=O)[C@@H](NC(=O)[C@H](Cc1ccccc1)NC(=O)[C@H](CC(=O)O)NC(=O)[C@H](CCCCNC(=O)COCCOCCNC(=O)COCCOCCNC(=O)CC[C@H](NC(=O)CCCCCCCCCCCCCCCCC(=O)O)C(=O)O)NC(=O)[C@H](C)NC(=O)[C@H](CCCNC(=N)N)NC(=O)[C@H](CCC(=O)O)NC(=O)[C@H](CO)NC(=O)[C@H](CC(=O)O)NC(=O)[C@H](CC(C)C)NC(=O)[C@](C)(Cc1ccccc1)NC(=O)[C@H](CCCCN)NC(=O)[C@H](CO)NC(=O)[C@@H](NC(=O)[C@H](CC(=O)O)NC(=O)[C@H](CO)NC(=O)[C@@H](NC(=O)[C@H](Cc1ccccc1)NC(=O)[C@@H](NC(=O)CNC(=O)[C@H](CCC(N)=O)NC(=O)C(C)(C)NC(=O)[C@@H](N)Cc1c[nH]cn1)[C@@H](C)O)[C@@H](C)O)C(C)C)C(C)C)C(=O)N[C@@H](CCC(=O)O)C(=O)N[C@@H](C)C(=O)NC(C)(C)C(=O)NCC(=O)O) [Peptide 525]
74.9	–	–	–	HXHGSXTSDVSKXLDSQAAQDFVXWIANT (Aib at 2; αMePhe at 6 and 13; K(O2Oc-O2Oc-γE-C18diacid)24; C-terminal amide) [Peptide 358]
7320	–	–	–	HXHGTFTSDVSKXLDSQAAQDFVXWIANT (Aib at 2; αMePhe at 13; K(γE-C18diacid)24; C-terminal amide) [Peptide 346]
1110	902	–	–	HXHGSXTSDVSKXLDSQAAQDFVXWIANT (Aib at 2; αMePhe at 6 and 13; K(γE-C20diacid)24; C-terminal amide) [Peptide 354]
71.8	85.7	–	–	H[Aib]HGS[αMeF]TSDVSK[αMeF]LDSRAAQD[αMeF]VK([AEEA-AEEA-γGlu-C18 diacid])SIANT-NH2 (not fully specified) [Peptide 379]
311	163	–	–	HXHGSXTSDVSKXLDSQAAQDFVXWIANT (Aib at 2; αMePhe at 6 and 13; K(γE-γE-(PEG)2-γE-γE-C18diacid)24 (printed YE-YE-(PEG)2-γE-γE-); C-terminal amide) [Peptide 353]
